This is an account of results in patent US10556007B2, “Antibody which binds Lrg1 and methods of use” (UCL Business PLC, priority 2015, dated 2020).

Assay [1] deals with explanted E16.5 mouse metatarsals. As to the kind of experiment: Mouse metatarsal angiogenesis assay (ex vivo). It is filed as cell-based. Conditions: mAbs at 100 nM, 12 days of culture. The method, then:
In this assay the function-blocking activity of the mAbs was tested, using explanted E16.5 mouse metatarsals. Vessels grow spontaneously from the embryonic bones to form a 2D-network that can be readily quantified with regard to, for example, vessel length, calibre and branch points. In the mouse metatarsal assay mAbs were added at 100 nM to the culture medium during 12 days of culture, with replenishment of media and mAbs every two days. At the end of the experiment samples were fixed and immunostained for Platelet endothelial cell adhesion molecule (PECAM), and vascular networks were quantified using Imaris software, with normalization to a phosphate buffered saline (PBS) control.

The target in a further assay is T1, human Lrg1 (Homo sapiens, UniProt P02750).
T1 sequence (P02750 36-347): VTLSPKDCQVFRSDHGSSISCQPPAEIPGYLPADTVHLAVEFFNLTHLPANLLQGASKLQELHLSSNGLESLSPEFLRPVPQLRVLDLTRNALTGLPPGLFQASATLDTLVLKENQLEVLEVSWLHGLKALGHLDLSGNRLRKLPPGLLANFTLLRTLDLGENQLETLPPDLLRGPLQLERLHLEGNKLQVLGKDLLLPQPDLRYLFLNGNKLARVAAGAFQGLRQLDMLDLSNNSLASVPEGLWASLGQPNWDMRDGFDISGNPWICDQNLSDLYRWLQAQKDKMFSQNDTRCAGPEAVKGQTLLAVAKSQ
The experiment in a line: Western blot specificity for human Lrg1. Conditions: conditioned medium from MDA-MB cells, human vitreous, whole human serum. It is filed as binding. Here is the method:
To evaluate the specificity of the lead mAbs for human Lrg1 western blot analysis of each was performed against conditioned medium from the MDA-MB human tumour cell line, samples of human vitreous humour, and samples of whole human serum.
(Immunoblotting shows a protein as a band on a membrane.)

Assay [2] concerns laser-induced choroidal neovascularisation. As to the kind of experiment: Rat laser-induced choroidal neovascularisation (CNV). It is filed as in vivo. The note with it: Long Evans rats, intravitreal at time of lasering, analysis 7 days later. Here is the method: Several antibodies were tested for their ability to block CNV in the rat. In these experiments mAbs were injected intravitreally at the time of lasering, with eyes being retrieved for analysis 7 days later (FIG. 5). Long Evans rats, aged 6-8 weeks, each received 5 retinal laser burns at the same time as intravitreal delivery of […] mAb or control IgG into both eyes. Four rats were used for each mAb, so a total of 40 lesions were analysed by staining for collagen IV and the neovascular areas quantified. […] Avastin was also tested in the rat laser model (data not shown) and observed to have no effect, consistent with Avastin having low affinity for rat VEGF.

In another assay the test system is LL/2 tumours. The experiment in a line: LL/2 tumour vasculature. It is filed as in vivo, mouse. The note with it: wild type mice, 50 mg per kg. From the text:
B16/F0 and LL/2 […] tumour cell lines were grafted into wild type and Lrg1 knockout mice.

In assay [3] the test system is laser-induced choroidal neovascularisation. The experiment in a line: Mouse model of laser-induced CNV. In kind it is in vivo. The note with it: intraocular injection at lasering, FFA after 7 days. The method, then: The images on the left of FIG. 17A show a typical wild-type mouse retina under normal illumination (Fundus), and under fluorescence illumination, 7 days after three laser burns were administered to the retinal pigment epithelium. Fluorescence images were captured ˜60 seconds after systemic dosing with fluorescein (Early Phase FFA) and again after ˜7 minutes (Late Phase FFA). At the time of lasering, animals received intraocular injections of either control IgG (top panels) or 15C4 (lower panels). The Early Phase FFA images show the size of the lesions, and the Late Phase images show leakage of fluorescein into the retina. Lesion sizes were quantified for 15C4 at 2.5, 5 and 10 μg doses, and also Eylea at 2 and 4 μg, and the % blocking is a measure of average lesion size relative to that observed in the controls. On the far right a similar analysis was undertaken using Eylea and Magacizumab (both at 2.1 μg) alone and in combination.
Wild type C57B6 mice were anaesthetized and received intravitreal injections of various doses of either Magacizumab, Eylea, or both in combination, immediately following laser photocoagulation of the retinal pigment epithelium. After 7 days (to allow the vascular lesions to form) the mice were again anaesthetized and examined by fluorescein angiography (FFA). Early phase FFA images (taken after 90 s) show the degree of vascularization at the lesion site. Measurement of the lesion area in the early phase images permits quantification in which percentage lesion size is normalized against the IgG4 control (FIG. 18).

Several values for one entry are separate records, joined by “and”; a condition that tells them apart may be missing. Identical values can stand only once. Entries after “also recorded” stand apart in the source; their conditions may differ.

B1: 15C4: mouse monoclonal antibody against human Lrg1, VH SEQ ID NO: 1, VL SEQ ID NO: 2 (antibody, V domains shown)
VH: QVQLQQSGDEVVRPGSSVKISCKASGYTFSGYWMNWVKQRPGQGLQWIGQIYPGDGDTNYNGKFKGKATLTADKSSSTAYMQLSTLTSEDSAIYFCARSITTVVLDYWGQGTTLTVSS
VL: DIVLTQSPVSLAVSLGQRATISCRASQSVSTSGYSFMHWYQQKPGQPPKFLIKYASNLESGVPARFSGSGSGTDFTLNIHPVEEEDTATYYCQHSWEMPLTFGAGTKLELK
modifications: 15C4 Variable Heavy Chain; 15C4 Variable light chain
As to B1, in assay [1], the “inhibition of angiogenesis (in words)” value was “inhibited angiogenesis”. In assay [1] (normalised to PBS control, 0.1 µM), the inhibition of angiogenesis was ~40% and > 25%. Further, in the assay with human Lrg1, the “recognition of Lrg1 band on western blot” value is “strongly recognise a single band of Lrg1 at 50 kD in the conditioned medium and vitreous”. The “blockade of angiogenesis (CNV)” value in assay [2] is reported as “functional blockade of angiogenesis; also recorded: effective blockade; also recorded: less efficacious than 4H2 in the in vivo rodent models of angiogenesis”. Also, the “replication of Lrg1 knockout tumour vessel phenotype” value with LL/2 tumours is given as “These results were mimicked”. Moreover, in assay [3], the lesion formation result was “inhibited lesion formation; also recorded: inhibit lesion formation with similar efficacy to the VEGF blocker Eylea”.
